Assay results published in the supplement of paper PMC11246515.
± gives the standard deviation of the averaged measurements.

Assay: total protein half-life in vivo (active degradation + dilution); higher = more stable protein
[1] = E. coli NCM3722 delta-clpP delta-lon delta-hslV, growth: N-lim chemostat, doubling time 6 h
[2] = E. coli NCM3722 delta-clpP, growth: N-lim chemostat, doubling time 6 h
[3] = E. coli NCM3722 delta-hslV, growth: N-lim chemostat, doubling time 6 h
[4] = E. coli NCM3722 delta-smpB, growth: N-lim chemostat, doubling time 6 h
[5] = wild type E. coli NCM3722, growth: C-lim chemostat, doubling time 3 h
[6] = wild type E. coli NCM3722, growth: C-lim chemostat, doubling time 6 h
[7] = wild type E. coli NCM3722, growth: C-lim chemostat, doubling time 12 h
[8] = wild type E. coli NCM3722, growth: N-lim chemostat, doubling time 6 h
[9] = wild type E. coli NCM3722, growth: N-lim chemostat, doubling time 12 h
[10] = wild type E. coli NCM3722, growth: P-lim chemostat, doubling time 6 h
[11] = wild type E. coli NCM3722, growth: P-lim chemostat, doubling time 12 h
[12] = E. coli NCM3722 delta-lon, growth: N-lim chemostat, doubling time 6 h

Row | Sequence | total protein half-life in vivo [1] [h] | total protein half-life in vivo [2] [h] | total protein half-life in vivo [3] [h] | total protein half-life in vivo [4] [h] | total protein half-life in vivo [5] [h] | total protein half-life in vivo [6] [h] | total protein half-life in vivo [7] [h] | total protein half-life in vivo [8] [h] | total protein half-life in vivo [9] [h] | total protein half-life in vivo [10] [h] | total protein half-life in vivo [11] [h] | total protein half-life in vivo [12] [h]
1 | MMNDGKQQSTFLFHDYETFGTHPALDRPAQFAAIRTDSEFNVIGEPEVFYCKPADDYLPQPGAVLITGITPQEARAKGENEAAFAARIHSLFTVPKTCILGYNNVRFDDEVTRNIFYRNFYDPYAWSWQHDNSRWDLLDVMRACYALRPEGINWPENDDGLPSFRLEHLTKANGIEHSNAHDAMADVYATIAMAKLVKTRQPRLFDYLFTHRNKHKLMALIDVPQMKPLVHVSGMFGAWRGNTSWVAPLAWHPENRNAVIMVDLAGDISPLLELDSDTLRERLYTAKTDLGDNAAVPVKLVHINKCPVLAQANTLRPEDADRLGINRQHCLDNLKILRENPQVREKVVAIFAEAEPFTPSDNVDAQLYNGFFSDADRAAMKIVLETEPRNLPALDITFVDKRIEKLLFNYRARNFPGTLDYAEQQRWLEHRRQVFTPEFLQGYADELQMLVQQYADDKEKVALLKALWQYAEEIV | 5.14 ± 0.17 | 4.99 ± 0.24 | 4.41 ± 0.22 | 3.9722 ± 0.0028 | 3.12 ± 0.044 | 5.87 ± 0.28 | 9.97 ± 1.4 | 4.297 ± 0.027 | 6.577 ± 0.033 | 6.73 ± 0.97 | 12.3 ± 0.74 | –
2 | MDALSRLLMLNAPQGTIDKNCVLGSDWQLPHGAGELSVIRWHALTQGAAKLEMPTGEIFTLRPGNVVLLPQNSAHRLSHVDNESTCIVCGTLRLQHSARYFLTSLPETLFLAPVNHSVEYNWLREAIPFLQQESRSAMPGVDALCSQICATFFTLAVREWIAQVNTEKNILSLLLHPRLGAVIQQMLEMPGHAWTVESLASIAHMSRASFAQLFRDVSGTTPLAVLTKLRLQIAAQMFSRETLPVVVIAESVGYASESSFHKAFVREFGCTPGEYRERVRQLAP | – | – | 6.33 | 5.156 ± 0.014 | – | 5.12 ± 3.4 | 11.8 ± 2.5 | 5.92 ± 0.51 | – | 5.4 ± 0.16 | 12.4 ± 1.3 | 6.04
3 | MSDRIDRDVINALIAGHFADPFSVLGMHKTTAGLEVRALLPDATDVWVIEPKTGRKLAKLECLDSRGFFSGVIPRRKNFFRYQLAVVWHGQQNLIDDPYRFGPLIQEMDAWLLSEGTHLRPYETLGAHADTMDGVTGTRFSVWAPNARRVSVVGQFNYWDGRRHPMRLRKESGIWELFIPGAHNGQLYKYEMIDANGNLRLKSDPYAFEAQMRPETASLICGLPEKVVQTEERKKANQFDAPISIYEVHLGSWRRHTDNNFWLSYRELADQLVPYAKWMGFTHLELLPINEHPFDGSWGYQPTGLYAPTRRFGTRDDFRYFIDAAHAAGLNVILDWVPGHFPTDDFALAEFDGTNLYEHSDPREGYHQDWNTLIYNYGRREVSNFLVGNALYWIERFGIDALRVDAVASMIYRDYSRKEGEWIPNEFGGRENLEAIEFLRNTNRILGEQVSGAVTMAEESTDFPGVSRPQDMGGLGFWYKWNLGWMHDTLDYMKLDPVYRQYHHDKLTFGILYNYTENFVLPLSHDEVVHGKKSILDRMPGDAWQKFANLRAYYGWMWAFPGKKLLFMGNEFAQGREWNHDASLDWHLLEGGDNWHHGVQRLVRDLNLTYRHHKAMHELDFDPYGFEWLVVDDKERSVLIFVRRDKEGNEIIVASNFTPVPRHDYRFGINQPGKWREILNTDSMHYHGSNAGNGGTVHSDEIASHGRQHSLSLTLPPLATIWLVREAE | 6.52 ± 0.61 | 5.72 ± 0.24 | 6.65 ± 0.44 | 6.35 ± 0.16 | 2.98 ± 0.15 | 6.06 ± 0.42 | 13.2 ± 0.43 | 5.95 ± 0.2 | 12.2 ± 2.1 | 6.35 ± 0.33 | 12.1 ± 1.9 | 6.1 ± 0.46
4 | MNTFSQVWVFSDTPSRLPELMNGAQALANQINTFVLNDADGAQAIQLGANHVWKLNGKPDDRMIEDYAGVMADTIRQHGADGLVLLPNTRRGKLLAAKLGYRLKAAVSNDASTVSVQDGKATVKHMVYGGLAIGEERIATPYAVLTISSGTFDAAQPDASRTGETHTVEWQAPAVAITRTATQARQSNSVDLDKARLVVSVGRGIGSKENIALAEQLCKAIGAELACSRPVAENEKWMEHERYVGISNLMLKPELYLAVGISGQIQHMVGANASQTIFAINKDKNAPIFQYADYGIVGDAVKILPALTAALAR | – | – | – | – | 2.87 ± 0.035 | 5.9 | 8.89 ± 0.4 | – | – | – | – | –
5 | MMTTILTIHVPSTPGRAWNMLVALQAGNIVARYAKLHLYDAFAIQESRRVDAGNEIAPLLEVEGMKVGLMTCYDLRFPELALAQALQGAEILVLPAAWVRGPLKEHHWSTLLAARALDTTCYMVAAGECGNKNIGQSRIIDPFGVTIAAASEMPALIMAEVTPERVRQVRAQLPVLNNRRFAPPQLL [P0DP64] | 7.53 | – | – | – | – | – | – | – | – | – | – | –
6 | MEYKDPMHELLSSLEQIVFKDETQKITLTHRTTSCTEIEQLRKGTGLKIDDFARVLGVSVAMVKEWESRRVKPSSAELKLMRLIQANPALSKQLME [P0A9V5] | – | 0.508 ± 0.1 | – | 0.409 | – | – | – | 0.277 | – | – | – | 0.337
